± gives the standard deviation.
Assay: protein stability index of a GFP-peptide fusion (GPS, HEK-293T) (PSI 1-6); higher = more stable
[1] = treatment: DMSO, c terminus: a fixed tail appended
[2] = treatment: MLN4924 1 uM, 8 h, c terminus: a fixed tail appended
[3] = treatment: DMSO, c terminus: native
[4] = treatment: MLN4924 1 uM, 8 h, c terminus: native
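Also: 24-mer peptide tiles fused after GFP, lentivirally expressed, FACS-sorted into six equal bins by GFP/DsRed ratio, decoded by Illumina sequencing, PSI is the read-weighted mean bin number.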

Sequence: TDGDHNVYPRPPEPREFSSRNFGV [ZC2HC1C]
- protein stability index [1]: 3.89 ± 0.23
- protein stability index [2]: 3.97 ± 0.18

Sequence: CPTEPPDDSCQDQPGTNCALAIKV [ADAMTSL2]
- protein stability index [1]: 4.95 ± 0.31
- protein stability index [2]: 5.03 ± 0.41

Sequence: QLTKELPLSPAFFGEDGIFRHDRL [PBXIP1]
- protein stability index [1]: 3.07 ± 0.19
- protein stability index [2]: 3.01 ± 0.33

Sequence: FDFERSGLQHAPEPDAADGPYDPN [SMAD6]
- protein stability index [1]: 5.37 ± 0.29
- protein stability index [2]: 5.5 ± 0.41

Sequence: QSSNLFRHQRRHNAEKLLNVVKV [ZNF24]
- protein stability index [3]: 1.84 ± 0.38
- protein stability index [4]: 2.11 ± 0.26

Sequence: VWDLNMEARPIETYQVHDYLRSKL [PPP2R2C]
- protein stability index [1]: 2.42 ± 0.43
- protein stability index [2]: 2.55 ± 0.095

Sequence: LSSSSARFLSRSIPSLQSEYVHY [CDC14A]
- protein stability index [3]: 3.19 ± 0.27
- protein stability index [4]: 3.06 ± 0.26

Sequence: LSSGMAVAGMPTAYDLSSVIASGS [CARM1]
- protein stability index [1]: 3.02 ± 0.22
- protein stability index [2]: 2.9 ± 0.41

Sequence: ETALYRKMLGNPSRLPAKCPGKGA [FKBP8]
- protein stability index [1]: 3.61 ± 0.31
- protein stability index [2]: 3.62 ± 0.3

Sequence: ELRPRRGRCGPQAARAAGRDVAAE [POMT2]
- protein stability index [1]: 3.58 ± 0.37
- protein stability index [2]: 3.67 ± 0.086

Sequence: LCRKCANDIFQAANPYWTSRGSSV [TRIM63]
- protein stability index [1]: 2.32 ± 0.36
- protein stability index [2]: 2.58 ± 0.49

Sequence: QPILQIDNARLAADDFRTKYEHEL [KRT16]
- protein stability index [1]: 4.6 ± 0.2
- protein stability index [2]: 4.31 ± 0.45

Sequence: APKGKGRKPAAGAQSAGTQQVAAV [BRD3]
- protein stability index [1]: 4.98 ± 0.33
- protein stability index [2]: 5.04 ± 0.24

Sequence: WIIKSNYQGLPVRCVKSIIRQVLQ [SRPK2]
- protein stability index [1]: 2.75 ± 0.48
- protein stability index [2]: 2.78 ± 0.5

Sequence: VNKVCGAACSSKRSPIIDVKNDRD [SERPINB5]
- protein stability index [1]: 3.77 ± 0.33
- protein stability index [2]: 3.89 ± 0.15

Sequence: EEERDEEEDKRRKGEEVTPISAIR [EPB41L3]
- protein stability index [1]: 5.59 ± 0.28
- protein stability index [2]: 5.66 ± 0.21

Sequence: FARFCKSQESALGNTVPAVEPGTP [DNAAF3]
- protein stability index [1]: 3.63 ± 0.25
- protein stability index [2]: 3.58 ± 0.21

Sequence: LGPSGLQNHGQHLILSREASWAKP [LCOR]
- protein stability index [1]: 3.08 ± 0.19
- protein stability index [2]: 3.18 ± 0.2

Sequence: SEEDGEARTQMILLRRSVEGASSD [PHTF1]
- protein stability index [1]: 5.18 ± 0.21
- protein stability index [2]: 5.23 ± 0.12

Sequence: SSGGSSGSSSDNRTYRYSNRYCGG [DYRK1B]
- protein stability index [1]: 4.04 ± 0.23
- protein stability index [2]: 4.07 ± 0.12

Sequence: LKKFLYNFDNPWNFQNIPKETELP [MIA2]
- protein stability index [1]: 3.061 ± 0.006
- protein stability index [2]: 2.66 ± 0.41

Sequence: RELKAKLSGVEEELQRTKQEVLSL [SASS6]
- protein stability index [1]: 4.47 ± 0.41
- protein stability index [2]: 4.46 ± 0.22

Sequence: KKEESGRERKKNWGGQEDREPAGR [PBXIP1]
- protein stability index [1]: 5.16 ± 0.14
- protein stability index [2]: 5.33 ± 0.26

Sequence: PRETLCTELVLSDCMLSEEGATLL [LRRC45]
- protein stability index [1]: 3.65 ± 0.2
- protein stability index [2]: 3.83 ± 0.11

Sequence: QHLKYKEHPEALSCLLLQLRREKP [INTS3]
- protein stability index [1]: 2.68 ± 0.16
- protein stability index [2]: 3 ± 0.32

Sequence: IDYKTTTILLDGQRVKLKLWDTSG [RAB40A]
- protein stability index [1]: 2.27 ± 0.07
- protein stability index [2]: 2.36 ± 0.2

Sequence: DNLKFSQEYESIDPGQQFTWEHSN [PTPRD]
- protein stability index [1]: 4.57 ± 0.44
- protein stability index [2]: 4.57 ± 0.11

Sequence: WAANAGVTASPPTDLIWKNQNSWG [LMNB1]
- protein stability index [1]: 2.46 ± 0.26
- protein stability index [2]: 2.48 ± 0.5

Sequence: ADGVKPQTNSTKNSAAATSPKGTL [CAMK2B]
- protein stability index [1]: 5.24 ± 0.14
- protein stability index [2]: 5.4 ± 0.3

Sequence: PVELYTAFQHTPTSITLTASRVSK [KMT2E]
- protein stability index [1]: 3.63 ± 0.095
- protein stability index [2]: 3.71 ± 0.13

Sequence: EAAGVQIQMVNESLGYVRSQFLKL [CD207]
- protein stability index [1]: 2.334 ± 0.019
- protein stability index [2]: 2.3 ± 0.44

Sequence: KVTGYLISYSSMLGAVAGLALGPI [MFSD9]
- protein stability index [1]: 3.31 ± 0.48
- protein stability index [2]: 2.96 ± 0.28

Sequence: TQEPIFTFTASFSGKVFPFFAVWK [TRIM15]
- protein stability index [1]: 3.19 ± 0.36
- protein stability index [2]: 2.89 ± 0.66

Sequence: NWEAPPGAFDSFLLRFGVPSPSTL [TNXB]
- protein stability index [1]: 3.06 ± 0.37
- protein stability index [2]: 2.85 ± 0.28

Sequence: SMTAGVSEREANDALNAYVCKGLP [INTS3]
- protein stability index [1]: 4.37 ± 0.16
- protein stability index [2]: 4.38 ± 0.14

Sequence: QVAMRCRCSSMHFLVAEWNEPSIN [SAT1]
- protein stability index [1]: 2.23 ± 0.53
- protein stability index [2]: 2.27 ± 0.2

Sequence: LFQTHENREHLVMMEKILGPIPSH [CLK3]
- protein stability index [1]: 2.85 ± 0.3
- protein stability index [2]: 3.1 ± 0.15

Sequence: MYRWKLSSHEPCSATCTTGVMSAY [ADAMTSL2]
- protein stability index [1]: 2.24 ± 0.74
- protein stability index [2]: 2.2 ± 0.73

Sequence: ELMKCQIIYPRQQLLTLRELEMIG [TRIP13]
- protein stability index [1]: 2.33 ± 0.47
- protein stability index [2]: 2.02 ± 0.53

Sequence: PNLVNLIEVFRRKRKMHLVFEYCD [CDKL4]
- protein stability index [1]: 2.06 ± 0.64
- protein stability index [2]: 2.07 ± 0.3

Sequence: ATGMFLQYTVPGTEGVTQLKLTVV [ZFYVE21]
- protein stability index [1]: 3.29 ± 0.56
- protein stability index [2]: 2.9 ± 0.46

Sequence: SGGYGQDALGMDPMMEHEMGGHHP [CTNNB1]
- protein stability index [1]: 4.65 ± 0.18
- protein stability index [2]: 4.69 ± 0.23

Sequence: IISGVSKVPIAQDELALSLGYAAS [C2CD2L]
- protein stability index [1]: 2.58 ± 0.3
- protein stability index [2]: 2.55 ± 0.32

Sequence: HPKDGPSPGGTLMDLSERQEVSSV [DLC1]
- protein stability index [1]: 5.15 ± 0.25
- protein stability index [2]: 5.23 ± 0.21

Source: the supplement of paper PMC10567573
